B1: HexaBody-CD38 (GEN3014), hexamerization-enhanced human IgG1 with the E430G Fc mutation (antibody, V domains shown)
VH: QVQLVQSGAEVKKPGSSVKVSCKAFGGTFSSYAISWVRQAPGQGLEWMGRIIRFLGIANYAQKFQGRVTLIADKSTNTAYMELSSLRSEDTAVYYCAGEPGERDPDAVDIWGQGTMVTVSS
VL: DIQMTQSPSSLSASVGDRVTITCRASQGIRSWLAWYQQKPEKAPKSLIYAASSLQSGVPSRFSGSGSGTDFTLTISSLQPEDFATYYCQQYNSYPLTFGGGTKVEIK
B2: daratumumab (antibody, V domains shown)
VH: EVQLLESGGGLVQPGGSLRLSCAVSGFTFNSFAMSWVRQAPGKGLEWVSAISGSGGGTYYADSVKGRFTISRDNSKNTLYLQMNSLRAEDTAVYFCAKDKILWFGEPVFDYWGQGTLVTVSS
VL: not shown

Tests used:
[1] = biological target: recombinant human CD38 (soluble CD38) (Homo sapiens, UniProt P28907); experiment: BLI
[2] = biological target: CD38 expressed on the plasma membrane of tumour cell lines (Homo sapiens, UniProt P28907); experiment: cell-based or functional assay

| Binder | Kd [1] | CD38 cyclase activity on Daudi cells (NGD+ to cGDPR), EC50 [2] | CD38 hydrolase activity on Daudi cells (ε-NAD+ to ε-ADPR), EC50 [2] | CD38 cyclase activity on Daudi cells, EC50 [2] | CD38 hydrolase activity on Daudi cells, EC50 [2] |
| --- | --- | --- | --- | --- | --- |
| B1 | 1.1 nM | 0.419 µg/mL | 0.335 µg/mL |  |  |
| B2 | 3.9 nM |  |  | 0.179 µg/mL | 0.028 µg/mL |
